Among the data in paper PMC12757075 (2026) are Kd values, retold here.

The target of this assay is actin filament barbed end (Oryctolagus cuniculus, UniProt P68135). The experiment in a line: pyrene-actin barbed-end elongation kinetic assay.

B1: vinculin V1ab4 (protein)
chain: MPVFHTRTIESILEPVAQQISHLVIMHKEGEVHGKAIPDLTAPVAAVQAAVSNLVRVGKETVQTTEDQILKRDMPPAFIKVENACTKLVQAAQMLQSDPYSVPARDYLIHGSEGILSGTSDLLLTFDEAEVRKIIRVCKGILEYLTVAEVVETMEDLVTYTKNLGPGMTKMAKMIDERQQELTHQEHRVMLVNSMNTVKELLPVLISAMKIFVTTKNSKNQGIEEALKNRNFTVEKMSAEINEIIRVLQLTSWDEDAWASKDTEAMKRALASIDSKLNQAKGWLRDPSASPGDAGEQAIRQILDEAGKVGELCAGKERREILGTCKMLGQMTDQVADLRARGQGSSPVAMQKAQQVSQGLDVLTAKVENAARKLEAMTNSKQSIAKKIDAAQNWLADPNGGPEGEEQIRGALAEARKIAELCDDPKERDDILRSLGEISALTSKLADLRRQGKGDSPEARALAKQVATALQNLQTKTNRAVANSRPAKAAVHLEGKIEQAQRWIDNPTVDDRGVGQAAIRGLVAEGHRLANVMMGPYRQDLLAKCDRVDQLTAQLADLAARGEGESPQARALASQLQDSLKDLKARMQEAMTQEVSDVFSDTTTPIKLLAVAATAPPDAPNREEVFDERAANFENHSGKLGATAEKAAAVGTANKSTVEGIQASVKTARELTPQVVSAARILLRNPGNQAAYEHFETMKNQWIDNVEKMTGLVDEAIDTKSLLDASEEAIKKDLDKCKVAMANIQPQMLVAGATSIARRANRILLVAKREVEISKDPKFREAVKAASDELSKTISPMVMDAKAVAGNISDPGLQKSFLDSGYRILGAVAKVREAFQPQEPDFPPPPPDLEQLRLTDELAPPKPPLPEGEVPPPRPPPPEEKDEEFPEQKAGEVINQPMMMAARQLHDEARKWSSKPGIPAAEVGIGVVAEADAADAAGFPVPPDMEDDYEPELLLMPSNQPVNQPILAAAQSLHREATKWSSKGNDIIAAAKRMALLMAEMSRLVRGGSGTKRALIQCAKDIAKASDEVTRLAKEVAKQCTDKRIRTNLLQVCERIPTISTQLKILSTVKATMLGRTNISDEESEQATEMLVHNAQNLMQSVKETVREAEAASIKIRTDAGFTLRWVRKTPWYQ
B1 returned a Kd of roughly 1260 nM.

For orientation: Kd means the concentration at which binding is half-saturated. Read a high Kd as lower affinity.
